The values that follow are results of earlier work, collected in patent US20020188108.

The target in the data set is T1, IF3-His6 (translation initiation factor 3) (Escherichia coli) (UniProt P0A707).
T1 sequence: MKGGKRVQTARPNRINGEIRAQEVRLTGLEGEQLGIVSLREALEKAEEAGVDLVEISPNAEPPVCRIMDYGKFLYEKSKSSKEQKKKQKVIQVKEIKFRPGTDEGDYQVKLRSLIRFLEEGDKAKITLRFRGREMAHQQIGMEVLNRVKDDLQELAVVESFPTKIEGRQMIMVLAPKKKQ
The note with it: CITED Tapprich et al. 1989.

For the substance 16S rRNA G791A in 30S subunit, the binding signal (fold reduction) is 10.
